Data as given in patent US20250230247A1 (DREN BIO, published 2025).
One block for each binder: values may come before it.

Tests used:
[1] = biological target: T1, Trop-2 (human, UniProt P09758 27-323); test: flow cytometry on A431 cells (MFI)
T1 construct: whole, on cells; also called Trop-2 on A431, HeLa, BxPC-3, SiHa and Capan-2 cells
T1 sequence (looked up): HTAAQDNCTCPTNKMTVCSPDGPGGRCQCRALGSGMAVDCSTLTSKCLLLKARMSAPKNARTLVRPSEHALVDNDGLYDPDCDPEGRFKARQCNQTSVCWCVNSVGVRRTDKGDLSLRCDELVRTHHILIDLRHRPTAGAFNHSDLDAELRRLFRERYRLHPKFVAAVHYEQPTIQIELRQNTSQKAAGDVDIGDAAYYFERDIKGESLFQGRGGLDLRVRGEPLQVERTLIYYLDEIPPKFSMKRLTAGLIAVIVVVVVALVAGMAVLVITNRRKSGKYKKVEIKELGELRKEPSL

[2] = biological target: T2, human Dectin-1 isoform A (human, UniProt Q9BXN2 1-247); test: flow cytometry on HEK Blue Dectin 1a cells (MFI)
T2 construct: also called hDectin-1a; Dectin-1 on HEK-Blue hDectin-1a cells
T2 sequence: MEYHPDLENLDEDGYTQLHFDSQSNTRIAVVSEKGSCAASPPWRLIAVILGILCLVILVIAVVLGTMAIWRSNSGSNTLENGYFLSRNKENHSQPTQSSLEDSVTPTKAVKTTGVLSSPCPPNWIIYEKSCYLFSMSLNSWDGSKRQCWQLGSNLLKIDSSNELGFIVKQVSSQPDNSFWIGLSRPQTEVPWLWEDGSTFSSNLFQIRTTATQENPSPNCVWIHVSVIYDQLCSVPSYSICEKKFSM

[3] = biological target: T3, human Dectin-1 (biosensor tests of Tables 3, 4A and 9; construct not stated) (human, UniProt Q9BXN2 66-247, limits assumed); test: Octet
T3 construct: also called hDectin-1
T3 sequence (looked up): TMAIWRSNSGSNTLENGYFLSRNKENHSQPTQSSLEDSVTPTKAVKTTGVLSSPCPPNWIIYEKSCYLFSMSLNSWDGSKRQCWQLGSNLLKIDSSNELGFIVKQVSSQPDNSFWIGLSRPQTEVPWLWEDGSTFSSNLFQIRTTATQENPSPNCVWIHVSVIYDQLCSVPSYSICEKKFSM

[4] = biological target: T3, human Dectin-1 (biosensor tests of …); test: Octet response; on X = 340: time not given here; on X = 470: time not given here
[5] = biological target: T3, human Dectin-1 (biosensor tests of …); test: Octet, single point off rate fit
[6] = biological target: T3, human Dectin-1 (biosensor tests of …); test: Fab K dis, run 1
[7] = biological target: T3, human Dectin-1 (biosensor tests of …); test: Fab K dis, run 2
[8] = biological target: T3, human Dectin-1 (biosensor tests of …); test: Fab K dis, run 3
[9] = biological target: T3, human Dectin-1 (biosensor tests of …); test: Fab K dis, average of 3
[10] = biological target: T3, human Dectin-1 (biosensor tests of …); test: Fab K dis, run 1; remark: listed apart in the source
[11] = biological target: T3, human Dectin-1 (biosensor tests of …); test: Fab K dis, run 2; remark: listed apart in the source
[12] = biological target: T3, human Dectin-1 (biosensor tests of …); test: Fab K dis, run 3; remark: listed apart in the source
[13] = biological target: T3, human Dectin-1 (biosensor tests of …); test: Fab K dis, average of 3; remark: listed apart in the source
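Wherever delta is given: Single-point dissociation rate (koff) fit for each variant binding domain, expressed as change versus the parental clone.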

B1: 2M24.116/Trop2 bispecific antibody (bispecific antibody, V domains shown)
VH 1: QVQLVQSGAEVKKPGASVKVSCKASGYTFTDYYMHWVRQAPGQGLEWMGWINPNEGDTNYAQKFQERITMTRDTSISTAYMELSRLRSDDTAVYYCARNTGAYSFGYWGQGTLVTVSS
VL 1: DIQMTQSPSSVSASVGDRVTITCRASQGISSWLAWYQQKPGKAPKLLIYGASDLQSGVPSRFSGSGSGTDFTLTISSLQPEDFATYYCHQAYSFPFTFGPGTKVDIK
VH 2: QVQLQQSGSELKKPGASVKVSCKASGYTFTNYGMNWVKQAPGQGLKWMGWINTYTGEPTYTDDFKGRFAFSLDTSVSTAYLQISSLKADDTAVYFCARGGFGSSYWYFDVWGQGSLVTVSS
VL 2: DIQLTQSPSSLSASVGDRVSITCKASQDVSIAVAWYQQKPGKAPKLLIYSASYRYTGVPDRFSGSGSGTDFTLTISSLQPEDFAVYYCQQHYITPLTFGAGTKVEIK
notes: hIgG1
EC50 [1]: 8.35 nM | EC50 [2]: 1.76 nM

B5: 2M24.119/Trop2 bispecific antibody (bispecific antibody, V domains shown)
VH 1: QVQLVQSGAEVKKPGASVKVSCKASGYTFTDYYMHWVRQAPGQGLEWMGWINPNEGDTNYAQKFEGRITMTRDTSISTAYMELSRLRSDDTAVYYCARNTGAYSFGYWGQGTLVTVSS
VL 1: DIQMTQSPSSVSASVGDRVTITCRASQGISSWLAWYQQKPGKAPKLLIYGASDLQSGVPSRFSGSGSGTDFTLTISSLQPEDFATYYCQQAYGFPFTFGPGTKVDIK
VH 2: QVQLQQSGSELKKPGASVKVSCKASGYTFTNYGMNWVKQAPGQGLKWMGWINTYTGEPTYTDDFKGRFAFSLDTSVSTAYLQISSLKADDTAVYFCARGGFGSSYWYFDVWGQGSLVTVSS
VL 2: DIQLTQSPSSLSASVGDRVSITCKASQDVSIAVAWYQQKPGKAPKLLIYSASYRYTGVPDRFSGSGSGTDFTLTISSLQPEDFAVYYCQQHYITPLTFGAGTKVEIK
notes: hIgG1
EC50 [1]: 7.87 nM | EC50 [2]: 1.3 nM

B7: 2M24A.31 hFab L2 (Fab, V domains shown)
VH: QVQLVQSGAEVKKPGASVKVSCKSSGYTFTDYYIHWVRQAPGQGLEWMGWINPNSGDTNYAQKFQGRITMTRDTSISTAYLELSRLRSDDTAVFYCARNSGSYSFGYWGQGTLVTVSS
VL: DIQMTQSPSSVSASVGDRVTITCRASQGISSWLAWYQQKPGKAPKLLIYGASSLQSGVPSRFSGSGSGTDFTLTISSLQPEDFATYYCQQAYSFPFTFGPGTKVDIE
notes: Fab; also called 2M24.L2
koff [10]: 0.00635 s⁻¹ | koff [11]: 0.00236 s⁻¹ | koff [12]: 0.00239 s⁻¹ | koff [13]: 0.0037 s⁻¹

B8: 2M24A.30 hFab L1 (Fab, V domains shown)
VH: QVQLVQSGAEVKKPGASVKVSCKSSGYTFTDYYIHWVRQAPGQGLEWMGWINPNSGDTNYAQKFQGRITMTRDTSISTAYLELSRLRSDDTAVFYCARNSGSYSFGYWGQGTLVTVSS
VL: DIQMTQSPSSVSASVGDRVTITCRASQGISSWLAWYQQKPGKAPKLLIFGASSLQSGVPSRFSGSGSGTDFTLTISSLQPEDFATYYCQQAYSFPFTFGPGTKVDIE
notes: Fab; also called 2M24.L1
koff [10]: 0.00631 s⁻¹ | koff [11]: 0.00208 s⁻¹ | koff [12]: 0.00213 s⁻¹ | koff [13]: 0.00351 s⁻¹

B10: 2M24A.32 hFab L3 (Fab, V domains shown)
VH: QVQLVQSGAEVKKPGASVKVSCKSSGYTFTDYYIHWVRQAPGQGLEWMGWINPNSGDTNYAQKFQGRITMTRDTSISTAYLELSRLRSDDTAVFYCARNSGSYSFGYWGQGTLVTVSS
VL: DIQMTQSPSSVSASVGDRVTITCRASQGISSWLAWYQQKPGKAPKLLIFAASSLQSGVPSRFSGSGSGTDFTLTISSLQPEDFATYYCQQAYSFPFTFGPGTKVDIE
notes: Fab; also called 2M24.L3
koff [10]: 0.00671 s⁻¹ | koff [11]: 0.00223 s⁻¹ | koff [12]: 0.00233 s⁻¹ | koff [13]: 0.00376 s⁻¹

More lines, now with the values ahead:

EC50 [1]: 5.21 nM
B2: parental anti-Trop2 monospecific antibody (antibody, V domains shown)
VH: QVQLQQSGSELKKPGASVKVSCKASGYTFTNYGMNWVKQAPGQGLKWMGWINTYTGEPTYTDDFKGRFAFSLDTSVSTAYLQISSLKADDTAVYFCARGGFGSSYWYFDVWGQGSLVTVSS
VL: DIQLTQSPSSLSASVGDRVSITCKASQDVSIAVAWYQQKPGKAPKLLIYSASYRYTGVPDRFSGSGSGTDFTLTISSLQPEDFAVYYCQQHYITPLTFGAGTKVEIK

delta [3]: 62% | X = 290 [4]: 0.082 | X = 350 [4]: 0.0314 | koff [5]: 0.0239 s⁻¹
B3: 2M24A.1.15 (Fab, V domains shown)
VH: QVQLVQSGAEVKKPGASVKVSCKSSGYTFTDYYIHWVRQAPGQGLEWMGWINPNSGDTNYAQKFQGRITMTRDTSISTAYLELSRLRSDDTAVFYCAANSGSYSFGYWGQGTLVTVSS
VL: DIQMTQSPSSVSASVGDRVTITCRASQGISSWLAWYQQKPGKAPKLLIFGASSLQSGVPSRFSGSGSGTDFTLTVSSLQPEDFATYYCQQAYSFPFTFGPGTKVDIE
notes: Fab; also called 2M24.1.15

koff [6]: 0.00412 s⁻¹ | koff [7]: 0.000995 s⁻¹ | koff [8]: 0.00151 s⁻¹ | koff [9]: 0.00221 s⁻¹
B4: 2M24A.28 hFab H6 (Fab, V domains shown)
VH: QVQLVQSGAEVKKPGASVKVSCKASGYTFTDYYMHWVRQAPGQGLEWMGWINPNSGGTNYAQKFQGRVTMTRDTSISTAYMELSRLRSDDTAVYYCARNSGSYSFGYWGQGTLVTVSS
VL: DIQMTQSPSSVSASVGDRVTITCRASQGISSWLAWYQQKPGKAPKLLIFGASSLQSGVPSRFSGSGSGTDFTLTVSSLQPEDFATYYCQQAYSFPFTFGPGTKVDIE
notes: Fab; also called 2M24.H6

delta [3]: 100% | X = 340 [4]: 0.106 | X = 470 [4]: 0 | koff [5]: 0.313 s⁻¹
B6: 2M24A.1.14 hFab (Fab, V domains shown)
VH: QVQLVQSGAEVKKPGASVKVSCKSSGYTFTDYYIHWVRQAPGQGLEWMGWINPNSGDTNYAQKFQGRITMTRDTSISTAYLELSRLRSDDTAVFYCARNSGSASFGYWGQGTLVTVSS
VL: DIQMTQSPSSVSASVGDRVTITCRASQGISSWLAWYQQKPGKAPKLLIFGASSLQSGVPSRFSGSGSGTDFTLTVSSLQPEDFATYYCQQAYSFPFTFGPGTKVDIE
notes: Fab; also called 2M24.1.14

koff [10]: 0.00615 s⁻¹ | koff [11]: 0.00278 s⁻¹ | koff [12]: 0.00314 s⁻¹ | koff [13]: 0.00402 s⁻¹
B9: 2M24A.33 hFab L4 (Fab, V domains shown)
VH: QVQLVQSGAEVKKPGASVKVSCKSSGYTFTDYYIHWVRQAPGQGLEWMGWINPNSGDTNYAQKFQGRITMTRDTSISTAYLELSRLRSDDTAVFYCARNSGSYSFGYWGQGTLVTVSS
VL: DIQMTQSPSSVSASVGDRVTITCRASQGISSWLAWYQQKPGKAPKLLIYAASSLQSGVPSRFSGSGSGTDFTLTISSLQPEDFATYYCQQAYSFPFTFGPGTKVDIE
notes: Fab; also called 2M24.L4

koff [6]: 0.00624 s⁻¹ | koff [7]: 0.00195 s⁻¹ | koff [8]: 0.0032 s⁻¹ | koff [9]: 0.0038 s⁻¹
B11: 2M24A.27 hFab H5 (Fab, V domains shown)
VH: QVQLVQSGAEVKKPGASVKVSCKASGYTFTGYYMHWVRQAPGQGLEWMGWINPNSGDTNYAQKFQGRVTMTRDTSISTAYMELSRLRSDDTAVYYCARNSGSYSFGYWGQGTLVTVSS
VL: DIQMTQSPSSVSASVGDRVTITCRASQGISSWLAWYQQKPGKAPKLLIFGASSLQSGVPSRFSGSGSGTDFTLTVSSLQPEDFATYYCQQAYSFPFTFGPGTKVDIE
notes: Fab; also called 2M24.H5
